Here are results for 8 molecules from US20160272683A1 (Novo Nordisk, published 2016).

The labels stand for the following.
T1: human calcitonin receptor (human, UniProt P30988 25-474)
T1 construct: whole, on cells; also called hCT-R; hCTR
T1 sequence (looked up): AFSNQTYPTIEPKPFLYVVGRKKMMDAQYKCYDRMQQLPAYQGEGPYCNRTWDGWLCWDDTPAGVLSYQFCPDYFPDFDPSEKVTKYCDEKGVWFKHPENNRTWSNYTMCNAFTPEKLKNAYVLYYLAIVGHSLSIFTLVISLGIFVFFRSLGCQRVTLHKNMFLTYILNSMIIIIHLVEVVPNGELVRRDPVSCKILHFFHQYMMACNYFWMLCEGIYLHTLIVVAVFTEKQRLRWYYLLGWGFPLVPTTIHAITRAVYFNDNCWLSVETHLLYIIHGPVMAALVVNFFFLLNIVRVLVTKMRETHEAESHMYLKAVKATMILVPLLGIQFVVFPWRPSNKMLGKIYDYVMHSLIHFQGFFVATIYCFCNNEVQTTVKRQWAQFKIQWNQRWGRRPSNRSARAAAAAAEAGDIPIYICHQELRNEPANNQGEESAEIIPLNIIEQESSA

T2: human calcitonin receptor (human, UniProt P30988 25-474)
T2 construct: whole, on cells; Assay VII: membranes on SPA beads; also called hCT-R; hCTR
T2 sequence (looked up): T1 sequence (looked up)

T3: human amylin receptor (amylin 3(a) receptor: human calcitonin receptor with RAMP-3) (human, UniProt P30988 25-474; O60896 24-148, limits assumed)
T3 construct: whole, on cells; Assay V: membranes of the Amylin 3(a)/CRE-luc BHK cells on SPA beads; also called hAmylin-R
T3 sequence (looked up) 1: T1 sequence (looked up)
T3 sequence (looked up) 2: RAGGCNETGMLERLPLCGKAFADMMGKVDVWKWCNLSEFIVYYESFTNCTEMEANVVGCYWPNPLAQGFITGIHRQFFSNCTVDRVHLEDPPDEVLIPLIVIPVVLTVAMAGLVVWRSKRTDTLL

B1: [N-terminal(C18 diacid), C-terminal(-)]mimylin (peptide)
peptide: {C18 diacid}-EASELSTAALGRLSAELHELATLPRTETGPESP-OH
B2: [N-terminal(C20 diacid-gGlu), des1, 4Q, 9V, 15Q, 16R, 19R, 21Q, 23Y, 27Q, 30S, 31Q, 32T, 33Y]mimylin (peptide)
peptide: {C20 diacid-γGlu}-ASQLSTAVLGRLSQRLHRLQTYPRTQTGSQTY-NH2
SMILES: CC(C)C[C@H](NC(=O)[C@H](CCCNC(=N)N)NC(=O)CNC(=O)[C@H](CC(C)C)NC(=O)[C@@H](NC(=O)[C@H](C)NC(=O)[C@@H](NC(=O)[C@H](CO)NC(=O)[C@H](CC(C)C)NC(=O)[C@H](CCC(N)=O)NC(=O)[C@H](CO)NC(=O)[C@H](C)NC(=O)CC[C@H](NC(=O)CCCCCCCCCCCCCCCCCCC(=O)O)C(=O)O)[C@@H](C)O)C(C)C)C(=O)N[C@@H](CO)C(=O)N[C@@H](CCC(N)=O)C(=O)N[C@@H](CCCNC(=N)N)C(=O)N[C@@H](CC(C)C)C(=O)N[C@@H](Cc1c[nH]cn1)C(=O)N[C@@H](CCCNC(=N)N)C(=O)N[C@@H](CC(C)C)C(=O)N[C@@H](CCC(N)=O)C(=O)N[C@H](C(=O)N[C@@H](Cc1ccc(O)cc1)C(=O)N1CCC[C@H]1C(=O)N[C@@H](CCCNC(=N)N)C(=O)N[C@H](C(=O)N[C@@H](CCC(N)=O)C(=O)N[C@H](C(=O)NCC(=O)N[C@@H](CO)C(=O)N[C@@H](CCC(N)=O)C(=O)N[C@H](C(=O)N[C@@H](Cc1ccc(O)cc1)C(N)=O)[C@@H](C)O)[C@@H](C)O)[C@@H](C)O)[C@@H](C)O
notes: also called Ex. #132
B3: [N-terminal(C20 diacid-gGlu), des1, 2L, 4Q, 8L, 9V, 15Q, 16R, 19R, 21Q, 23Y, 27Q, 30S, 31Q, 32T, 33Y]mimylin (peptide)
peptide: {C20 diacid-γGlu}-LSQLSTLVLGRLSQRLHRLQTYPRTQTGSQTY-NH2
SMILES: CC(C)C[C@H](NC(=O)CC[C@H](NC(=O)CCCCCCCCCCCCCCCCCCC(=O)O)C(=O)O)C(=O)N[C@@H](CO)C(=O)N[C@@H](CCC(N)=O)C(=O)N[C@@H](CC(C)C)C(=O)N[C@@H](CO)C(=O)N[C@H](C(=O)N[C@@H](CC(C)C)C(=O)N[C@H](C(=O)N[C@@H](CC(C)C)C(=O)NCC(=O)N[C@@H](CCCNC(=N)N)C(=O)N[C@@H](CC(C)C)C(=O)N[C@@H](CO)C(=O)N[C@@H](CCC(N)=O)C(=O)N[C@@H](CCCNC(=N)N)C(=O)N[C@@H](CC(C)C)C(=O)N[C@@H](Cc1c[nH]cn1)C(=O)N[C@@H](CCCNC(=N)N)C(=O)N[C@@H](CC(C)C)C(=O)N[C@@H](CCC(N)=O)C(=O)N[C@H](C(=O)N[C@@H](Cc1ccc(O)cc1)C(=O)N1CCC[C@H]1C(=O)N[C@@H](CCCNC(=N)N)C(=O)N[C@H](C(=O)N[C@@H](CCC(N)=O)C(=O)N[C@H](C(=O)NCC(=O)N[C@@H](CO)C(=O)N[C@@H](CCC(N)=O)C(=O)N[C@H](C(=O)N[C@@H](Cc1ccc(O)cc1)C(N)=O)[C@@H](C)O)[C@@H](C)O)[C@@H](C)O)[C@@H](C)O)C(C)C)[C@@H](C)O
notes: also called Ex. #133
B4: [C-terminal(-)]mimylin (peptide)
peptide: EASELSTAALGRLSAELHELATLPRTETGPESP-OH
notes: also called Ex. #135
B5: [N-terminal(C20 diacid-gGlu), 2L, 4G, 8L, 9V, 15Q, 21Q, 23Y, 27G, 30S, 31G, 32T, 33Y]mimylin (peptide)
peptide: {C20 diacid-γGlu}-ELSGLSTLVLGRLSQELHELQTYPRTGTGSGTY-NH2
SMILES: CC(C)C[C@H](NC(=O)CNC(=O)[C@H](CO)NC(=O)[C@H](CC(C)C)NC(=O)[C@H](CCC(=O)O)NC(=O)CC[C@H](NC(=O)CCCCCCCCCCCCCCCCCCC(=O)O)C(=O)O)C(=O)N[C@@H](CO)C(=O)N[C@H](C(=O)N[C@@H](CC(C)C)C(=O)N[C@H](C(=O)N[C@@H](CC(C)C)C(=O)NCC(=O)N[C@@H](CCCNC(=N)N)C(=O)N[C@@H](CC(C)C)C(=O)N[C@@H](CO)C(=O)N[C@@H](CCC(N)=O)C(=O)N[C@@H](CCC(=O)O)C(=O)N[C@@H](CC(C)C)C(=O)N[C@@H](Cc1c[nH]cn1)C(=O)N[C@@H](CCC(=O)O)C(=O)N[C@@H](CC(C)C)C(=O)N[C@@H](CCC(N)=O)C(=O)N[C@H](C(=O)N[C@@H](Cc1ccc(O)cc1)C(=O)N1CCC[C@H]1C(=O)N[C@@H](CCCNC(=N)N)C(=O)N[C@H](C(=O)NCC(=O)N[C@H](C(=O)NCC(=O)N[C@@H](CO)C(=O)NCC(=O)N[C@H](C(=O)N[C@@H](Cc1ccc(O)cc1)C(N)=O)[C@@H](C)O)[C@@H](C)O)[C@@H](C)O)[C@@H](C)O)C(C)C)[C@@H](C)O
B6: [N-terminal(C20 diacid-gGlu-OEG), des1, 30S, 31G]mimylin (peptide)
peptide: {C20 diacid-γGlu-AEEA}-ASELSTAALGRLSAELHELATLPRTETGSGSP-NH2
notes: mimylin derivative; des1 = residue 1 deleted; also called Ex. #41; 41
B7: [N-terminal(C20 diacid-gGlu), des1, 9T, 21S, 23Y, 30S, 31G, 33Y]mimylin (peptide)
peptide: {C20 diacid-γGlu}-ASELSTATLGRLSAELHELSTYPRTETGSGSY-NH2
SMILES: CC(C)C[C@H](NC(=O)[C@H](CCCNC(=N)N)NC(=O)CNC(=O)[C@H](CC(C)C)NC(=O)[C@@H](NC(=O)[C@H](C)NC(=O)[C@@H](NC(=O)[C@H](CO)NC(=O)[C@H](CC(C)C)NC(=O)[C@H](CCC(=O)O)NC(=O)[C@H](CO)NC(=O)[C@H](C)NC(=O)CC[C@H](NC(=O)CCCCCCCCCCCCCCCCCCC(=O)O)C(=O)O)[C@@H](C)O)[C@@H](C)O)C(=O)N[C@@H](CO)C(=O)N[C@@H](C)C(=O)N[C@@H](CCC(=O)O)C(=O)N[C@@H](CC(C)C)C(=O)N[C@@H](Cc1c[nH]cn1)C(=O)N[C@@H](CCC(=O)O)C(=O)N[C@@H](CC(C)C)C(=O)N[C@@H](CO)C(=O)N[C@H](C(=O)N[C@@H](Cc1ccc(O)cc1)C(=O)N1CCC[C@H]1C(=O)N[C@@H](CCCNC(=N)N)C(=O)N[C@H](C(=O)N[C@@H](CCC(=O)O)C(=O)N[C@H](C(=O)NCC(=O)N[C@@H](CO)C(=O)NCC(=O)N[C@@H](CO)C(=O)N[C@@H](Cc1ccc(O)cc1)C(N)=O)[C@@H](C)O)[C@@H](C)O)[C@@H](C)O
notes: mimylin derivative; des1 = residue 1 deleted; also called Ex. #99; 99
B8: [N-terminal(C20 diacid-gGlu), des1, 9S, 21S, 23Y, 30S, 31G, 33Y]mimylin (peptide)
peptide: {C20 diacid-γGlu}-ASELSTASLGRLSAELHELSTYPRTETGSGSY-NH2
SMILES: CC(C)C[C@H](NC(=O)[C@H](CO)NC(=O)[C@H](C)NC(=O)[C@@H](NC(=O)[C@H](CO)NC(=O)[C@H](CC(C)C)NC(=O)[C@H](CCC(=O)O)NC(=O)[C@H](CO)NC(=O)[C@H](C)NC(=O)CC[C@H](NC(=O)CCCCCCCCCCCCCCCCCCC(=O)O)C(=O)O)[C@@H](C)O)C(=O)NCC(=O)N[C@@H](CCCNC(=N)N)C(=O)N[C@@H](CC(C)C)C(=O)N[C@@H](CO)C(=O)N[C@@H](C)C(=O)N[C@@H](CCC(=O)O)C(=O)N[C@@H](CC(C)C)C(=O)N[C@@H](Cc1c[nH]cn1)C(=O)N[C@@H](CCC(=O)O)C(=O)N[C@@H](CC(C)C)C(=O)N[C@@H](CO)C(=O)N[C@H](C(=O)N[C@@H](Cc1ccc(O)cc1)C(=O)N1CCC[C@H]1C(=O)N[C@@H](CCCNC(=N)N)C(=O)N[C@H](C(=O)N[C@@H](CCC(=O)O)C(=O)N[C@H](C(=O)NCC(=O)N[C@@H](CO)C(=O)NCC(=O)N[C@@H](CO)C(=O)N[C@@H](Cc1ccc(O)cc1)C(N)=O)[C@@H](C)O)[C@@H](C)O)[C@@H](C)O
notes: mimylin derivative; des1 = residue 1 deleted; also called Ex. #100; 100

Numbered stars: 1 amine (or outer) side, 2 acyl side, 3 side chain; on linkers, the order of the positions; unused ones are H or OH. Ends that are not written are not given here. * marks the point of attachment. C20 diacid = O=C(O)CCCCCCCCCCCCCCCCCCC(=O)*; C18 diacid = O=C(O)CCCCCCCCCCCCCCCCC(=O)*; γGlu = O=C(O)[C@H](CCC(=O)[*:2])N[*:1]; AEEA = NCCOCCOCC(=O)O

In the first assay the target is T1, human calcitonin receptor. Nature of the assay: whole-cell competition vs 125I-human calcitonin (Assay VIIa). In outline:
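BHK tk'ts 13 cells stably co-expressing human calcitonin receptor and a CRE-luciferase reporter, seeded overnight at 37 °C. Bound tracer counted by scintillation after cold HBSS washes and NaOH/SDS lysis; IC₅₀ from one-site competition fit taken as receptor affinity.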
As usually defined, the IC50 is the concentration at which inhibition is half-maximal. In the case of B1, the IC50 is 42.4 nM.

As to B2, the IC50 came to 1.55 nM.

B3: the IC50 was found to be 9.66 nM.

On to B4, for which the IC50 is 630 nM.

Consider B5, for which the IC50 was 3.62 nM.

Another assay concerns the target T2, human calcitonin receptor. The experiment in a line: SPA competition vs 125I-calcitonin, membranes with human CTR (Assay VII). The method, then: The binding assay was performed using scintillation proximity assay (SPA) beads (RPNQ0001) from PerkinElmer® and cell membranes prepared from a BHK tk'ts 13 cell line was stably transfected with the human calcitonin receptor and a CRE-responsive luciferase reporter gene. Membranes were prepared in the following way; the cells were rinsed with PBS and incubated with Versene for approximately 5 min before harvesting. The cells were flushed with PBS and the cell-suspension was centrifuged for 5 min at 1000 rpm.
(§1) EDTA (pH 7.4, buffer 2). The resulting pellet was resuspended in buffer 2 and protein concentration was tested (BCA protein Assay, Pierce). The homogenate was kept cold during the whole procedure. The membranes were kept at −80° C. until use. Assay was performed in a 384 well Optiplate (PerkinElmer®) in a total volume of 40 ul. Membranes were mixed with SPA beads. Final concentration of membranes 35 ng/μL final and Final concentration of SPA beads was 0.05 mg/well. Test-compounds were dissolved in DMSO and further diluted in assay buffer (50 mM Hepes, pH 7.4, 1 mM CaCl2, 5 mM MgCl2, 0.1% OA and 0.02% Tween20). […] Samples were analyzed on TopCounter™ (Packard). The IC₅₀ was calculated using (one site binding competition analysis) GraphPad Prism5 as a measure of receptor affinity.
With B6, the 50% inhibitory concentration (IC50) was 0.085 nM.

Regarding B7, the IC50 stood at 0.154 nM.

Take B8: the half-maximal inhibitory concentration (IC50) was determined as 0.1 nM.

The target in a further assay is T3, human amylin receptor (amylin 3(a) …). The experiment in a line: SPA competition vs 125I-rat amylin, membranes with human CTR + RAMP-3 (Assay V). The method, then: as §1, with “The binding assay was performed using scintillation proximity assay (SPA) beads (RPNQ0001) from PerkinElmer and cell membranes from the Amylin 3(a)/CRE-luc cells (as described in Assay (II)) were used. Membranes were prepared in the following way; the cells were rinsed with PBS and incubated with Versene for approximately 5 min before harvesting. The cells were flushed with PBS and the cell-suspension was centrifuged for 5 min at 1000 rpm. […] The” for “EDTA (pH 7.4, buffer 2). The”, “use. The assay” for “use. Assay”, “Optiplate (PerkinElmer)” for “Optiplate (PerkinElmer®)”, “and” for “and Final concentration of”
Consider B6, for which the 50% inhibitory concentration (IC50) came to 0.141 nM.

Take B7: the concentration for half-maximal inhibition (IC50) amounted to 0.159 nM.

For the molecule B8, the IC50 was 0.171 nM.
